{"source": "FireProtDB (doi:10.1016/j.jmb.2005.07.042)", "conditions": "Escherichia coli (strain K12), pH 7.4, Thermal, DSC, Pipes 50 mM, reversible: yes (80%), whole UniProt chain shown", "note": "Several values for one entry are separate records, joined by “and”; a condition that tells them apart may be missing. Equal entries are not always repeated."}
{"protein": "Guanylate kinase wild type, P60546 (protein) MAQGTLYIVSAPSGAGKSSLIQALLKTQPLYDTQVSVSHTTRQPRPGEVHGEHYFFVNHDEFKEMISRDAFLEHAEVFGNYYGTSREAIEQVLATGVDVFLDIDWQGAQQIRQKMPHARSIFILPPSKIELDRRLRGRGQDSEEVIAKRMAQAVAEMSHYAEYDYLIVNDDFDTALTDLKTIIRAERLRMSRQKQRHDALISKLLAD", "values": [{"measurement": "unfolding enthalpy (calorimetric)", "setting": "NaCl 250 mM, transition: 3", "result": "36.8 kcal/mol and 70.3 kcal/mol"}, {"measurement": "unfolding enthalpy (calorimetric)", "setting": "transition: 3", "result": "38.9 kcal/mol and 67.5 kcal/mol"}, {"measurement": "unfolding enthalpy (calorimetric)", "setting": "transition: 4", "result": "27.3 kcal/mol and 47.8 kcal/mol and 30.8 kcal/mol"}]}
